This is an account of results in article PMC5993529.

The Kd is the equilibrium constant for the complex coming apart.

In experiment [1] the target is Recombinant human VEGFR1 (human) (UniProt P17948). Kind of experiment: SPR. (In general: Surface plasmon resonance follows binding to a sensor surface in real time, without labels.)
Experiment [2] deals with Recombinant human VEGFR2 (human) (UniProt P35968). Kind of experiment: SPR.
UniProt P35968, sequence (P35968 20-764): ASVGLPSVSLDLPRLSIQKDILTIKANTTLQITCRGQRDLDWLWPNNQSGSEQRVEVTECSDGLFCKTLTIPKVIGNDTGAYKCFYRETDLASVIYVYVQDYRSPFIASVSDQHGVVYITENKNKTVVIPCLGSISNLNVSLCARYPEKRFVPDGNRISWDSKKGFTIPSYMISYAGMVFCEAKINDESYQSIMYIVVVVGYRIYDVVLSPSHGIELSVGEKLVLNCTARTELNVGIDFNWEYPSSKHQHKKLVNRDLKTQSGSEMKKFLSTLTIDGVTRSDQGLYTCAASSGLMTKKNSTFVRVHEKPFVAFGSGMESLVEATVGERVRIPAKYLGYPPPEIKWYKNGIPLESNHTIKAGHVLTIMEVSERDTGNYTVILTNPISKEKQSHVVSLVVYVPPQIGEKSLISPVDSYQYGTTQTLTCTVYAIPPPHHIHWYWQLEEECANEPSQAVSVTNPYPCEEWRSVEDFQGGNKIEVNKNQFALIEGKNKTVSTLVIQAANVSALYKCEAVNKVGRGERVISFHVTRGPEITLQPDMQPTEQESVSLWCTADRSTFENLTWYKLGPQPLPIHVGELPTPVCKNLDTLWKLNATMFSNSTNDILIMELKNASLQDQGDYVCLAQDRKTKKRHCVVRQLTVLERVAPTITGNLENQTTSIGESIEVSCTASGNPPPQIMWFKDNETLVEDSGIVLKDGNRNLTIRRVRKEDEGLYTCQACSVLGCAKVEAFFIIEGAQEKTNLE

UniProt P17948, sequence (P17948 27-758): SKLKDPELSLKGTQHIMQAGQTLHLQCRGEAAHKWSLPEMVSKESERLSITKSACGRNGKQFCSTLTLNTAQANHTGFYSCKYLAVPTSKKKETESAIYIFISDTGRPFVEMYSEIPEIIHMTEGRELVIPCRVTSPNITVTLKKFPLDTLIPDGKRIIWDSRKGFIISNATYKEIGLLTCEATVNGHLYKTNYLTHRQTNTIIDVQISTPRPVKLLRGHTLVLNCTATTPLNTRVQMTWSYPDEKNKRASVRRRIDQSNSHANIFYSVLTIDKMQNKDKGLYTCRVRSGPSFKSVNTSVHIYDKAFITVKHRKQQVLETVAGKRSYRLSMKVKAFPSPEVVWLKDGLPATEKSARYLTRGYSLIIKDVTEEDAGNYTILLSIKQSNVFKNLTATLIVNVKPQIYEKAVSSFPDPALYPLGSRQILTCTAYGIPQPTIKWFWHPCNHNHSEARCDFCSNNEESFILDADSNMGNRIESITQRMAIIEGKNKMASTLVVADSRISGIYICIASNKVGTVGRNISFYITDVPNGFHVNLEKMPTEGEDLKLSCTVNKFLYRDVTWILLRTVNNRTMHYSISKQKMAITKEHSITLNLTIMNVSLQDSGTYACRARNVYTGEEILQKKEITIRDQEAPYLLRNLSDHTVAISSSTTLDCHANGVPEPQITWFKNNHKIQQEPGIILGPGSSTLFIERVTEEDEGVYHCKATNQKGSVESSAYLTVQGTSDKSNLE

With “Recombinant human VEGFA (from UniProt P15692 1-395) (ligand)”, the Kd in experiment [1] was 0.0231 nM; in experiment [2], 0.398 nM.
